Reference: the nanobody polyreactivity screen of Harvey et al. (2022)

Assay: yeast display, Sf9 membrane polyspecificity reagent, FACS + sequencing; frameworks hold sequencing errors
Summary of the method: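 Galactose induction of a Saccharomyces cerevisiae BJ5465 synthetic nanobody display library ran 36–48 hours. The cells were then stained for 1 hour at 4 °C with 10% biotinylated, detergent-solubilized Sf9 membrane reagent, pulled down on streptavidin microbeads and FACS-sorted into low and high (top ~1%) gates on expression and reagent-binding fluorescence. Labels for polyreactivity follow the gate of origin.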

| Sequence | polyreactivity (PSR sort gate) |
| --- | --- |
| QVQLVESGGGLVQAGGSLRLSCAASGLTFPRYAMGWYRQAPGKEREFVAGITYSGGSTYYADSVKGRFTISRDNAKNTVYLQMNSLKPEDTAVYYCAATPWSYEYYYWGQGTQVTVSS | low polyreactivity |
| QVQLVESGGGLVQAGGSLRLSCAASGLTFPYYAMGWYRQAPGTERELVAAISGGGRTYYADSVKGRFTISRDNAKNTVYLQMNSLKPEDTAVYYCAPFHVGRYTGTVTDGYDYWGQGTQVTVSS | high polyreactivity |
| QVQLVESGGGLVQAGGSLRLSCAASGLTFPYYSMGWYRQAPGKERVLVAAITKSGGSTYADSVKGRFTISRDNAKNTVYLQMNSLKPEDTAVYYCAAGRRKYGTKGRGDYWGQGTQVTVSS | low polyreactivity |
| QVQLVESGGGLVQAGGSLRLSCAASGLTFPYYVMGWYRQAPGKERELVAAIDDGGGSTYYADSVKGRFTISRDNAKNTVYLQMNSLKPEDTAVYYCAAQVDYLAHYGYWGQGTQVTVSS | low polyreactivity |
| QVQLVESGGGLVQAGGSLRLSCAASGLTFQSNAMGWSRQAPGKEREFVAAITSGGNTYYADSVKGRFTISRDNAKNTVYLQMNSLKPEDTAVYYCNADYQDEEDDYWGQGTQVTVSS | low polyreactivity |
| QVQLVESGGGLVQAGGSLRLSCAASGLTFQSYDMGWYRPAPGKERELVAAISRRGGSTYYADSVKGRFTISRDNAKNTVYLQLNSLKPEDTAVYYCAAETYYTYWPYGMGYWGQGTQVTVSS | high polyreactivity |
| QVQLVESGGGLVQAGGSLRLSCAASGLTFQSYDMGWYRQAPGKERELVAAISRRGGSTYYADSVKGRFTISRDNAKNTVYLQMNSLKPEDTAVYYCAAEYRSWSWRMDYWGQGTQVTVSS | high polyreactivity |
| QVQLVESGGGLVQAGGSLRLSCAASGLTFQVYAMGWYRQAPGKERELVAGITRGGRTYYADSVKGRFTISRDNAKNTVYLQMNSLKPEDTAVYYCNADAPYGGPSWAKSRYEYWGQGTQVTVSS | low polyreactivity |
| QVQLVESGGGLVQAGGSLRLSCAASGLTFQWYAMGWYRQAPGKERELVAAISIGGSTNYADSVKGRFTISRDNAKNTVYLQMNSLKPEDTAVYYCNKGSDFFWYDYDYWGQGTQVTVSS | low polyreactivity |
| QVQLVESGGGLVQAGGSLRLSCAASGLTFQYNAMGWYRQAPGKERELVAANSRSGGRTYYADSVKGRFTISRDNAKNTVYLQLNSLKPEDTAVYYCAARDRSTRSDLTSYSVLYGNYYWGQGTQVTVSS | high polyreactivity |
| QVQLVESGGGLVQAGGSLRLSCAASGLTFRAYTMGWYRQAPGKERELVAAISRSGGSTYYADSVKGRFTISRDNAKNTVYLQMNSLKPEDTAVYYCAAPGYQTVGMGYWGQGTQVTVSS | high polyreactivity |
| QVQLVESGGGLVQAGGSLRLSCAASGLTFRDNAMGWYRQAPGKERELVATINSGGSTDYADSVKGRFTISRDNAKNTVYLQMNILKPEDTAVYYCAVYREYYDRGWYSIFYWYDYWGQGTQVTVSS | low polyreactivity |
| QVQLVESGGGLVQAGGSLRLSCAASGLTFRFYTMGWDRQAPGKERELVAAISTSGGSTYYADSVKGRFTISRDNAKNTVYLQMNSLKPEDTAVYYCNAVYALNGYDYWGQGTQVTVSS | low polyreactivity |
| QVQLVESGGGLVQAGGSLRLSCAASGLTFRGYAMGWYRQAPGKERELVAAITSSAGRTYYADSVKGRFTISRDNAKNTVYLQMNSLKPEDTAVYYCAAEYASWFGSMNYWGQGTQVTVSS | high polyreactivity |
| QVQLVESGGGLVQAGGSLRLSCAASGLTFRPNAMGWYRQAPGKERELVAAISWSGRTYYADSVKGRFTISRDNAKNTVYLQMNILKPEDTAVYYCAARGYSDRYGYWGQGTQVTVSS | high polyreactivity |
| QVQLVESGGGLVQAGGSLRLSCAASGLTFRRNTMGWYRQAPGKERELVATITSGGSTNYADSVKGRFTISRDNAKNTVYLQMNSLKPEDTAVYYCAARTTYITTWVYRHTYTYYYWGQGTQVTVSS | high polyreactivity |
| QVQLVESGGGLVQAGGSLRLSCAASGLTFRRYAMGWYRQAPGKERELVAGISRGGSTYYADSVKGRFTISRDNAKNTVYLQMNRLKPEDTAVYYCAAYNSGTYPVQPVPYDMDYWGQGTQVTVSS | low polyreactivity |
| QVQLVESGGGLVQAGGSLRLSCAASGLTFRVNDMGWYRQAPGKERELVATISSGGSTYYADSVKGRFTISRDNAKNTVYLQMNSLKPEDTAVYYCATNSEGQESNSYYVWMGYWGQGTQVTVSS | low polyreactivity |
| QVQLVESGGGLVQAGGSLRLSCAASGLTFRVYAMGWYRQEPGKERELVASISRTGSTTYADSVKGRFTISRDNAKNTVYLQMNSLKPEDTAVYYCNARYYVLLWDSLAREYWGQGTQVTVSS | high polyreactivity |
| QVQLVESGGGLVQAGGSLRLSCAASGLTFRYNAMGWYRQATGKERELVARISRNGGRTYYADSVKGRFTISRDNAKNTVYLQMNSLKPEDTAVYYCNVVYFVTTSPGYDYWGQGTQVTVSS | high polyreactivity |
| QVQLVESGGGLVQAGGSLRLSCAASGLTFRYYAMGWYRQAPGKERELVAAISRSGGSTYYADSVKGRFTISRDNAKNTVYLQMNSLKPEDTAVYYCAAGRRGGKQGGTRGGDYWGQGTQVTVSS | high polyreactivity |
| QVQLVESGGGLVQAGGSLRLSCAASGLTFRYYTMGWYRQAPGKERELVAAITKSGSSTYYADSVKGRFTISRDNAKNTVYLQMNSLKPEDTAVYYCAKDSNHWGQGTQVTVSS | high polyreactivity |

| Sequence | polyreactivity (PSR sort gate) |
| --- | --- |
| QVQLVESGGGLVQAGGSLRLSCAASGLTFSDYAIGWYRQAPGKEREFVAAITRNGGSTRYADSVKGRFTFSRDNAKNTVYLKMNRLKPEDTAVYYCATDVGFGRKQRPHRPGYGYWGQGTQVTVSS | low polyreactivity |
| QVQLVESGGGLVQAGGSLRLSCAASGLTFSHYAMGWYRQAPRKERELVAGISSRGGNTYYADSVKGRFTISRDNAKNTVYLQMNSLKPEDTAVYYCNAPKPKRAYDYWGQGTQVTVSS | high polyreactivity |
| QVQLVESGGGLVQAGGSLRLSCAASGLTFSIYAMGWYRQAPGKERELVASITSSGGSTYYADSVKGRFTISRDNAKNTVYLQMNSLKPEDTAVYYCATGRSRDYDYWGQGTQVTVSS | high polyreactivity |
| QVQLVESGGGLVQAGGSLRLSCAASGLTFSKNAMGWYRQAPGKEREVVATISYSSYRTNYADSVKGRFTISRDNANNPVYLQMNSLKPEDTAVYYCAARVSKGWPTHYDYWGQGTQVTVSS | high polyreactivity |
| QVQLVESGGGLVQAGGSLRLSCAASGLTFSKYAMGWYRQAPGQERELVAAITRGDRTYSADSVKGRFTISRDNAKNTVYLQMNSLKPEDTAVYYCAARQYYWGQGTQVTVSS | high polyreactivity |
| QVQLVESGGGLVQAGGSLRLSCAASGLTFSLYAMGWYRQAPGKERELVAAISWTGGSTYYADSVKGRFTISRDNAKNTVYLQMNSLKPEDTAVYYCNARYTLFARYCYDYWGQGPQVTVSS | low polyreactivity |
| QVQLVESGGGLVQAGGSLRLSCAASGLTFSRYAMGWYRQAPGKERELVAAITSIGGSTYYADSVKGRFTISRDNAKNTVYLQMNSLKPEDTAVYYCRAFFRRDYWGQGTQVTVSS | high polyreactivity |
| QVQLVESGGGLVQAGGSLRLSCAASGLTFSRYAMGWYRQAPGKERELVAAITWSGSSTYYADSVKGRFTISRDNAKNTVYLQMNILKQEDTAVYYCAARYGYSRGPYYRSDYWGQGTQVTVSS | high polyreactivity |
| QVQLVESGGGLVQAGGSLRLSCAASGLTFSTYAMGWYRQAPGKERELVAVIRRTGSTYYADSVKGRFTISRDNAKNTVYLQMNSLKPEDTAVYYCATARRHVSGYDYWGQGTQVTVSS | high polyreactivity |
| QVQLVESGGGLVQAGGSLRLSCAASGLTFSWYAMGWYRQAPGKEREFVATISASGGSTYYADSVKGRFTISRDNAKNTVYLQMNSLKPEDTAVYYCNAIYFRYRNGGYDYWGQGTQVTVSS | high polyreactivity |
| QVQLVESGGGLVQAGGSLRLSCAASGLTFTINAMGWYRQAPGKERELVAAITGNNTSTYYADSVKGRFTISRDNAKNTVYLQMNSLKPEDTAVYYCAASVYHYGPLYYWGQGTQVTVSS | low polyreactivity |
| QVQLVESGGGLVQAGGSLRLSCAASGLTFTLNAMGRYRQATGKERELVATISQDGGGTTYADSVKGRFTISRDNAKNTVYLQMNSLKPEDTAVYYCATTLPPSVWGEWSGTRYPYDYWGQGTQVTVSS | low polyreactivity |
| QVQLVESGGGLVQAGGSLRLSCAASGLTFTNYAMGWYRQAPGKELELVAAISSSGSDTYYADSVKGRFTISRDNAKNTVYLQMNSLKPEDTAVYYCAAVLTALSPDFEYEYWGQGTQVTVSS | low polyreactivity |
| QVQLVESGGGLVQAGGSLRLSCAASGLTFTQYAMGWYRQAPGKERELVAAITSGGRTYYADSVKGRFTISRDNAKNTVYLQMNSLKPEDTAVYYCAADRRYVDAYHFGYWGQGTQVTVSS | high polyreactivity |
| QVQLVESGGGLVQAGGSLRLSCAASGLTFTTYAMGWYIPAPGKDRELVSAINYRGTSSYYADSVKGRFTISRDNAKKTVYLQINSLKPEDTAVYYCNARQTRSSRINYAEGIYNFWGQGTQVTVSS | high polyreactivity |
| QVQLVESGGGLVQAGGSLRLSCAASGLTFTVNAMGWYRQAPGKERELVARIRNSGGRTYYADSVKGRFTISRDNAKNTVYLQMNSLKPEDTAVYYCAARRYYYQVGYDYWGQGTQVTVSS | high polyreactivity |
| QVQLVESGGGLVQAGGSLRLSCAASGLTFTVYTMVWYRQAPGKERELVATNSWSDGRTYYADSVKGRFTISRDNAKNTVYLQMNSVKPEDTAVYYCATESITWYYFKHEYWGQGTQVTVSS | high polyreactivity |
| QVQLVESGGGLVQAGGSLRLSCAASGLTFVANAMGWYSQAPGKERELVARISSSGGSTYYADSVKGRFTISRDNAKNTVYLQMNSLKPEDTAVYYCASSQSGGYDYWGQGTQVTVSS | high polyreactivity |
| QVQLVESGGGLVQAGGSLRLSCAASGLTFVDYAMGWYRQAPGKERELVAAITSSGGSITYYADSVKGRFTISRDNAKNTVYSQMNSLKPEDTAVYYCNADYGIYTDSFRGPDYESWGQGTQVTVSS | low polyreactivity |
| QVQLVESGGGLVQAGGSLRLSCAASGLTFVNSTMGWYRQAPGKEWEFVAAITSSGGSSTYYADSVKGRFTISRDNAKNTVYLQMNSLKPEDTAVYDCAAGFSRYVDIVILTVYTGDYWGQGTQVTVSS | low polyreactivity |
| QVQLVESGGGLVQAGGSLRLSCAASGLTFVRYAMGWYRQAPGKERELVAAITTRGGSTYYADSVKGRFTISRDNAKNTVYLQMNSLKPEDTAVFYCNADRVTSSSVRYDYWGQGTQVTVSS | high polyreactivity |
